Read-outs that look alike come from different tables or passages of the source.
Target: T1, recombinant TLR4 (UniProt O00206 24-631)
T1 construct: Toll-like receptor 4 (TLR4), recombinant protein from R&D Systems; also called Toll-like receptor 4; source: bought: R&D Systems
Test: BLI; Octet QKe; recombinant TLR4 (1 ug/mL) immobilised in PBS by amine coupling on an AR2G sensor, blocked with 1 M ethanolamine pH 8.5; sensors dipped in 2-fold dilutions of Der f 38 (6400-400 nM and blank); association 300 s, dissociation 1200 s in assay buffer

T1 sequence (O00206 24-631): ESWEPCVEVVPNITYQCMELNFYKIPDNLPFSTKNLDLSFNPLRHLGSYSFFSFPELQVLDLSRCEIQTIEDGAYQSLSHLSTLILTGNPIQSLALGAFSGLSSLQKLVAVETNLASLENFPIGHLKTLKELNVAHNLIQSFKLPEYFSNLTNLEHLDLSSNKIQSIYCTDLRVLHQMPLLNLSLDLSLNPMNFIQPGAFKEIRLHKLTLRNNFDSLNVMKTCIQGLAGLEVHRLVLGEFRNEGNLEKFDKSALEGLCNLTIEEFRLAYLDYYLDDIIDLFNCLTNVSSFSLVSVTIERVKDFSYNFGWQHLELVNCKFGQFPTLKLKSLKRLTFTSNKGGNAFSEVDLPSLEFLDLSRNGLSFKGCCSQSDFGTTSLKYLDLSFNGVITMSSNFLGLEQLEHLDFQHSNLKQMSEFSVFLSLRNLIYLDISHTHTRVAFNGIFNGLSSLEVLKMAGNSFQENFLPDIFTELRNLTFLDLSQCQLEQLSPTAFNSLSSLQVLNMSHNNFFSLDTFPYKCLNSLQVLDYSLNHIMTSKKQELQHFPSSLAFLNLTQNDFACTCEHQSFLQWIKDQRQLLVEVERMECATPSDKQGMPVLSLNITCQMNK

Kd | Kd (both partners purified) | Molecule
74 nM | – | recombinant Der f 38 (natural protein)
– | 1.56 nM | recombinant MD2 (natural protein, UniProt Q9Y6Y9 19-160, looked up, MD2 (MD-2, lymphocyte antigen 96), recombinant protein from R&D Systems; source: bought: R&D Systems) QKQYWVCNSSDASISYTYCDKMQYPISINVNPCIELKRSKGLLHIFYIPRRDLKQLYFNLYITVNTMNLPKRKEVICRGSDDDYSFCRALKGETVNTTISFSFKGIKFSKGKYKCVVEAISGSPEEMLFCLEFVILHQPNSN
